Test [1] addresses T1, IL-2(K35E)/Fc (human, UniProt P60568 21-153, K35E). Nature of the test: SPR. For orientation: SPR reads the build-up and loss of mass on a sensor chip optically.
Test [2] deals with T2, H9(K35E)/Fc in which F92 was replaced by the original Ile (human, UniProt P60568 21-153, K35E | L80F | R81D | L85V | I86V). Nature of the test: SPR.
Test [3] deals with T3, H9(K35E)/Fc in which F92 was replaced by the phage-selected Leu (human, UniProt P60568 21-153, K35E | L80F | R81D | L85V | I86V | I92L). Description: SPR.
Test [4] concerns the target T4, fusion protein containing I92L-hIL-2 (K35E, human IgG1 Fc) (human, UniProt P60568 21-153, K35E | I92L). Nature of the test: SPR.
The target of test [5] is T5, H9(K35E)/Fc (human, UniProt P60568 21-153, K35E | L80F | R81D | L85V | I86V | I92F). Nature of the test: SPR.
The target of test [6] is T6, 80VPPEDLIA87 + I92L(K35E)/Fc (human, UniProt P60568 21-153, K35E | L80V (from the name 80VPPEDLIA87) | R81P (from the name 80VPPEDLIA87) | …). Description: SPR.
Test [7] addresses T1, IL-2(K35E)/Fc. Description: SPR. The source holds these as a separate data set.
Test [8] has as its target T7, 80FDPADVVE87 + I92L(K35E)/Fc (human, UniProt P60568 21-153, K35E | L80F | R81D | R83 was replaced by either Ala or Glu (here Ala) | L85V | …). Description: SPR.
Test [9] deals with T5, H9(K35E)/Fc. Description: SPR. This is another data set of the same source.
Test [10] has as its target T8, 80FDPEDVVE87 + I92L(K35E)/Fc (human, UniProt P60568 21-153, K35E | L80F | R81D | R83 was replaced by either Ala or Glu (here Glu) | L85V | …). Nature of the test: SPR.
For test [11], the target named is T9, 80VPPEDLIE87 + I92L(K35E)/Fc (human, UniProt P60568 21-153, K35E | L80V (from the name 80VPPEDLIE87) | R81P (from the name 80VPPEDLIE87) | …). Description: SPR.
Test [12] has as its target T10, 80FDPHDVVE87 + I92L + V93L(K35E)/Fc (human, UniProt P60568 21-153, K35E | L80F | R81D | R83H (from the name 80FDPHDVVE87) | L85V | I86V | S87E | …). Description: SPR.
The target of test [13] is T6, 80VPPEDLIA87 + I92L(K35E)/Fc. Description: SPR. This is another data set of the same source.
Test [14] deals with T1, IL-2(K35E)/Fc. Nature of the test: SPR. This is another data set of the same source.
The target in test [15] is T7, 80FDPADVVE87 + I92L(K35E)/Fc. Description: SPR. The source holds these as a separate data set.
Test [16] addresses T5, H9(K35E)/Fc. Nature of the test: SPR. This is another data set of the same source.
In test [17] the target is T8, 80FDPEDVVE87 + I92L(K35E)/Fc. Nature of the test: SPR. This is another data set of the same source.
Test [18] addresses T9, 80VPPEDLIE87 + I92L(K35E)/Fc. Nature of the test: SPR. The source holds these as a separate data set.
Test [19] concerns the target T10, 80FDPHDVVE87 + I92L + V93L(K35E)/Fc. Nature of the test: SPR. This is another data set of the same source.
The target in test [20] is T1, IL-2(K35E)/Fc. Description: SPR. The source holds these as a separate data set.
The target of test [21] is T2, H9(K35E)/Fc in which F92 was replaced …. Description: SPR. The source holds these as a separate data set.
Test [22] concerns the target T3, H9(K35E)/Fc in which F92 was replaced …. Description: SPR. This is another data set of the same source.
In test [23] the target is T4, fusion protein containing I92L-hIL-2 …. Nature of the test: SPR. This is another data set of the same source.
Test [24] has as its target T5, H9(K35E)/Fc. Nature of the test: SPR. The source holds these as a separate data set.
Test [25] addresses T11, human IL-2 receptor beta chain extracellular domain (ECD) (human, UniProt P14784 27-240).
T11 construct: human IL-2 receptor beta subunit (CD122), recombinant extracellular domain; Coated on immunotubes for panning and on plates for phage ELISA; also called hIL-2R beta subunit ECD; beta chain ECD; source: bought: R&D Systems
T11 sequence (looked up): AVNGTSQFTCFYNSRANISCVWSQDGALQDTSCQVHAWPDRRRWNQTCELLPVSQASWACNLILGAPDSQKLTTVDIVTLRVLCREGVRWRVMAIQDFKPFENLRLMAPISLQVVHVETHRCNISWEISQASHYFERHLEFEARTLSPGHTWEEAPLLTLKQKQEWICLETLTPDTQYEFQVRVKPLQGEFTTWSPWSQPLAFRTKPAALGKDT
Description: ELISA; polyvinyl chloride plates coated with human beta chain ECD; purified phage preparations of individual clones; bound phages detected with anti-M13-HRP; relative reactivity = signal on beta chain / signal on 9E10 (anti-c-myc). The settings on record: both partners purified. For orientation: In an ELISA, binding on a coated surface is turned into a signal by an enzyme label.

Where two headings read alike, the source gives them in different places.

B1: recombinant fusion protein comprising human IL-2R beta subunit extracellular domain and mouse IgG2a Fc (Fc fusion)
chain: T11 sequence (looked up)
Take B1: the koff in test [1] is 0.00308 s⁻¹; in [2], 0.000251 s⁻¹; in [3], 0.000298 s⁻¹; in test [4], 0.00113 s⁻¹; in [5] it was 0.000218 s⁻¹; in test [6] it was 0.000349 s⁻¹. In addition, the koff in [7] was 0.00326 s⁻¹; in test [8], 0.000461 s⁻¹; in test [9], 0.000395 s⁻¹; in [10] it was 0.000273 s⁻¹; in [11], 0.000304 s⁻¹; in test [12], 0.000266 s⁻¹. Moreover, the dissociation constant Kd is 0.8 nM in test [13]; 106 nM in test [14]; 0.54 nM in [15]; 4.09 nM in [16]; 0.29 nM in [17]; 0.37 nM in test [18]. Besides, the Kd in test [19] was found to be 1.12 nM; in [20], 103 nM; in test [21], 3.84 nM; in test [22], 3.35 nM; in test [23] it was 36.5 nM; in test [24], 4.47 nM.

B2: phage-displayed hIL-2 variant 2B (S2 library) (ligand, human, UniProt P60568 23-153, looked up)
chain: TSSSTKKTQLQLEHLLLDLQMILNGINNYKNPKLTRMLTFKFYMPKKATELKHLQCLEEELKPLEEVLNLAQSKNFHVPPEDLIANINVLVLELKGSETTFMCEYADETATIVEFLNRWITFCQSIISTLT
notes: No K35E on the phage
As to B2, the binding result in test [25] is on record as “binds”.

In general, koff refers to the rate constant with which the complex falls apart. Broadly, the Kd is the free concentration of one partner at which half of the binding sites on the other are occupied at equilibrium, for simple one-to-one binding.
